Test results from the RNAGym collection of RNA variant scans (doi:10.7554/elife.80360).

B1: HDV Ribozyme (parent)
chain: GGCCGGCAUGGUCCCAGCCUCCUCGCUGGCGCCGGCUGGGCAACAUUCCGAGGGGACCGUCCCCUCGGUAAUGGCGAAUGGGACCCA

Variants of: B1
Assay: self-cleavage, relative activity (ratio to wild type); higher = more cleavage; co-transcriptional

Compared with A16U C24A, C15G C24U is lower in self-cleavage: 0.482 for the first, 0.196 for the second.

Compared with G53C U69G, G5U A71G is lower in self-cleavage: 1.14 for the first, 0.361 for the second.

Going from C57A U65A to G35U C66A, the self-cleavage falls from 1.09 to 0.332.

Compared with A43G U46G, G1C C13U is lower in self-cleavage: 0.499 for the first, 0.125 for the second.

Compared with A43G C57A, G39U U69A is lower in self-cleavage: 0.628 for the first, 0.492 for the second.

Compared with C4U C64A, G74C C84G is lower in self-cleavage: 0.639 for the first, 0.0875 for the second.

Compared with G34C A56C, G31U C58A is higher in self-cleavage: 0.237 for the first, 0.35 for the second.

Going from A78G G81C to C4G A51G, the self-cleavage rises from 0.148 to 0.554.

Going from G29A G82A to G40C U47C, the self-cleavage rises from 0.109 to 0.243.

First: C64U U69A
Second: C15G G55A
The self-cleavage of the first is higher: 1.02 for the first, 0.522 for the second.

Compared with C33G A43C, C18A A77U is lower in self-cleavage: 0.0723 for the first, 0 for the second.

First: C64G G73U
Second: U20A C63G
The self-cleavage of the first is higher: 0.172 for the first, 0 for the second.

Compared with C7G A83U, C21A C48A is higher in self-cleavage: 0 for the first, 0.157 for the second.

Compared with C4G A70U, C61A C86U is higher in self-cleavage: 0.35 for the first, 1.01 for the second.

Going from C4G C7A to C36U G53A, the self-cleavage rises from 0 to 0.641.

Compared with U69C C75U, A45C A87G is higher in self-cleavage: 0.0573 for the first, 0.554 for the second.

Going from G5U C21G to C22U C58A, the self-cleavage rises from 0.0791 to 0.914.

Compared with C32A U69C, U23A A43G is higher in self-cleavage: 0.161 for the first, 0.516 for the second.

Going from C3U G34C to G6A G31U, the self-cleavage rises from 0.182 to 0.219.

Compared with C15A C62A, U69A G80A is lower in self-cleavage: 0.677 for the first, 0.434 for the second.

Compared with G68A G76C, C26G G67U is lower in self-cleavage: 0.88 for the first, 0.665 for the second.

Compared with C3A U72G, G2U G39U is lower in self-cleavage: 0.0712 for the first, 0.0543 for the second.

First: U12C G81C
Second: U23C A77G
The self-cleavage of the first is lower: 0.18 for the first, 0.587 for the second.

First: C64G A78G
Second: U27A
The self-cleavage of the first is lower: 0.527 for the first, 0.916 for the second.

Going from C66A A87U to C48A G52C, the self-cleavage rises from 0.994 to 1.03.

Compared with C36G C63G, G25A G59A is lower in self-cleavage: 0.212 for the first, 0.189 for the second.

First: C15G G28C
Second: G55C A77C
The self-cleavage of the first is lower: 0.107 for the first, 0.495 for the second.

Going from C15G G35U to G40C C41G, the self-cleavage rises from 0.0396 to 0.222.

First: C36A G73C
Second: U65A U79G
The self-cleavage of the first is lower: 0.178 for the first, 0.492 for the second.

Going from G39C U47A to U27A G31U, the self-cleavage rises from 0.243 to 0.244.

Going from C44G G81C to G6C A70U, the self-cleavage falls from 0.306 to 0.185.

Compared with C14G A42C, C58U G82U is higher in self-cleavage: 0.0923 for the first, 0.34 for the second.

First: C22G G59A
Second: A43C U47A
The self-cleavage of the first is lower: 0.124 for the first, 0.506 for the second.

Compared with C24A G39U, C22A G29U is lower in self-cleavage: 0.211 for the first, 0.128 for the second.

Going from C14G A56U to U9G C21A, the self-cleavage falls from 0.969 to 0.123.

First: C21U C33U
Second: C18G C26U
The self-cleavage of the first is lower: 0.147 for the first, 0.388 for the second.

Compared with U23C C84A, G34C C61A is lower in self-cleavage: 0.911 for the first, 0.208 for the second.

First: C4G C15G
Second: G6U G80U
The self-cleavage of the first is higher: 0.308 for the first, 0.0838 for the second.

C13G U79C and U37G C48U are the same in self-cleavage: 0 for the first, 0 for the second.

First: G17U C58U
Second: G40A C85A
The self-cleavage of the first is lower: 0.708 for the first, 0.859 for the second.

Going from A16C C22A to C26A A70C, the self-cleavage rises from 0.0594 to 1.01.

First: G34A G55U
Second: G29U C85U
The self-cleavage of the first is higher: 0.192 for the first, 0.086 for the second.

Compared with G40C A42U, G11A U46C is higher in self-cleavage: 0.151 for the first, 0.166 for the second.

Going from G35C U47A to C14A U46G, the self-cleavage rises from 0.0594 to 0.525.

First: C15A A45C
Second: C61A C62G
The self-cleavage of the first is lower: 0.151 for the first, 0.892 for the second.

Compared with U37A C58G, C33A G82A is lower in self-cleavage: 0.369 for the first, 0.102 for the second.

First: G11U G34U
Second: U27A G80U
The self-cleavage of the first is lower: 0.0252 for the first, 0.231 for the second.

First: G29U G82A
Second: A8U U65C
The self-cleavage of the first is lower: 0.0282 for the first, 0.895 for the second.

First: C4A C44U
Second: C19A U37C
The self-cleavage of the first is lower: 0.0739 for the first, 0.0845 for the second.

Going from C48U U69C to C44A C48A, the self-cleavage falls from 1.07 to 0.88.

Going from G39C C62G to C13U G68C, the self-cleavage rises from 0.0573 to 0.511.

First: C3U A83U
Second: G11C G80U
The self-cleavage of the first is higher: 0.17 for the first, 0.0621 for the second.

First: G11U G80U
Second: U60A U65A
The self-cleavage of the first is lower: 0.113 for the first, 0.831 for the second.

Going from C57A G80U to G28C G82C, the self-cleavage falls from 0.253 to 0.0475.

Compared with G25C G35A, G2A C58A is higher in self-cleavage: 0.0346 for the first, 0.234 for the second.

Compared with C36A A51G, C4A C61U is lower in self-cleavage: 0.269 for the first, 0.267 for the second.

Going from G1U A71G to C58A A87C, the self-cleavage rises from 0.429 to 1.09.

First: C63A U79G
Second: C7U G38U
The self-cleavage of the first is higher: 0.682 for the first, 0.109 for the second.

Compared with G35U U46A, G5U C22A is lower in self-cleavage: 0.116 for the first, 0.0415 for the second.

Compared with C4A A8U, C58A U79C is higher in self-cleavage: 0.0723 for the first, 0.554 for the second.

Compared with C41U C84U, A43C G80C is lower in self-cleavage: 0.765 for the first, 0.194 for the second.

Going from C15G G76C to G31U G76U, the self-cleavage rises from 0.467 to 0.585.

Going from G29C G76A to G1C G35A, the self-cleavage rises from 0.0545 to 0.208.

First: C19U G76A
Second: U37G C64G
The self-cleavage of the first is higher: 0.197 for the first, 0.0437 for the second.

First: C44A C85A
Second: G55A C85A
The self-cleavage of the first is lower: 0.656 for the first, 1.02 for the second.

Going from C64A A77G to G31A G52C, the self-cleavage falls from 0.703 to 0.619.

Compared with C26U G31U, A56U G73A is lower in self-cleavage: 0.762 for the first, 0.752 for the second.

Going from U12A G52U to G25C G54C, the self-cleavage falls from 0.604 to 0.138.

First: G2A C30U
Second: C3A G80A
The self-cleavage of the first is lower: 0.0639 for the first, 0.175 for the second.

First: G59U A83U
Second: C18A G67A
The self-cleavage of the first is higher: 0.486 for the first, 0.163 for the second.

Compared with G55A A77C, U23G A87C is higher in self-cleavage: 0.302 for the first, 0.799 for the second.

First: U27A A43C
Second: G28C G67U
The self-cleavage of the first is higher: 0.0723 for the first, 0 for the second.

Going from C30G U72G to U65G A87U, the self-cleavage rises from 0.0923 to 1.12.

Going from G52C G82A to G34U C85U, the self-cleavage falls from 0.712 to 0.164.

Compared with G1C G11A, U46A G82U is higher in self-cleavage: 0.0652 for the first, 0.119 for the second.

Going from G17U C18G to G35U C61U, the self-cleavage rises from 0.095 to 0.554.

Compared with G39C G76A, C41U U46G is higher in self-cleavage: 0.289 for the first, 1.02 for the second.

Going from C61U G74A to C21G G38C, the self-cleavage falls from 0.463 to 0.

First: U69A C85U
Second: A16U G67U
The self-cleavage of the first is lower: 0.831 for the first, 0.975 for the second.

First: G40C C48U
Second: C63A G81A
The self-cleavage of the first is lower: 0.326 for the first, 0.446 for the second.

Compared with C41G G68A, C13G G34U is lower in self-cleavage: 0.45 for the first, 0.136 for the second.

Compared with C24G U69A, C7U C66U is higher in self-cleavage: 0.204 for the first, 0.665 for the second.

Going from G17A G34U to U20G A42C, the self-cleavage rises from 0.0346 to 0.0875.

In the case of A43C C57A, the self-cleavage is reported as 0.785.
